Experimental data reported in patent publication US20220202899A1, “COMPOSITION FOR PREVENTION OR TREATMENT OF HAIR LOSS INCLUDING HAPLN1” (HAPLNSCIENCE INC., priority 2019, published 2022).

Assays:
[1] = system: TβRII; test: TβRII protein in human hair germinal matrix cells treated with HAPLN1 by concentration (Western blotting); format: cell-based; conditions: 20 ng/mL of HAPLN1, 24 hours, serum-free medium
Protocol: HAPLN1 was treated on human hair germinal matrix cells by concentration. Specifically, human hair germinal matrix cells (HHGMC) were dispensed into a poly-D-lysine 6-well plate at 5.0×10^4 per well and cultured for 24 hours. After 24 hours, the medium was removed and replaced with a new serum-free medium. HAPLN1 was treated with 0, 5, 10, 20 ng/mL and incubated for 24 hours. After collecting cells, a lysis buffer (25 mM Tris-HCl, 1 mM EDTA, 0.1% Triton-X100, phosphatase inhibitor, and protease inhibitor) was added, and all the cells were broken through sonication. TβRII in the sample was measured using Western blotting. The optical density of TβRII was compared to that of GAPDH using a densitometer (that is, TβRII optical concentration GAPDH optical concentration). Here, GAPDH was used as a loading control.

[2] = system: hair growth cycle; test: Intraperitoneal systemic administration of HAPLN1, mouse hair growth; format: in vivo; conditions: 20-month-old C57 mice; 0.1 mg/kg intraperitoneally once every 3 days
Protocol: HAPLN1 in the body decreases with age. HAPLN1 was administered to 20-month-old C57 mice with a decrease in HAPLN1 in the body.
Since C57 mice had different hair growth cycles, the cycles of all mice were uniformly adjusted through two hair growth cycles (see the schedule of FIG. 19). Thereafter, HAPLN1 was injected intraperitoneally at 0.1 mg/kg once every 3 days.

[3] = system: cell membrane TβRII; test: Cell membrane TβRII protein (biotin labelling, immunoprecipitation, Western blotting); format: cell-based, human; conditions: HAPLN1 25 ng/mL and/or HA 25 μg/mL; TGF-β2 2 ng/mL
Protocol: All proteins present in the cell membrane were labeled with biotin, and immunoprecipitation was performed with a biotin antibody to isolate only the cell membrane protein. In order to confirm changes in the ratio of TβRII among cell membrane proteins, Western blotting was performed. The specific experimental method will now be described.
Human hair germinal matrix cells were dispensed into a poly-D-lysine 100 mm dish at a concentration of 2.7×10^6 and cultured for 24 hours. After 24 hours, the medium was removed and replaced with a new serum-free medium. HAPLN1 was treated with 25 ng/mL and HA with 25 μg/mL, and after 1 hour, TGF-β2 (2 ng/mL) was treated. To label biotin after 23 hours, EZ-Link™ Sulfo-NHS-LC-Biotin (Thermo Fisher Scientific, MA, USA) was treated at a concentration of 250 μg/mL and incubated at 4° C. for 1 hour. The biotin labeling reaction was terminated by treatment with 50 mM Tris-HCl. After collecting cells, a lysis buffer (50 mM Tris-HCl, 150 mM NaCl, 1% NP-40, phosphatase inhibitor, and protease inhibitor) was added, and all the cells were broken through sonication. Cell membrane proteins were isolated by performing immunoprecipitation experiments using anti-biotin antibodies. TβRII in the isolated membrane protein sample was measured using Western blotting. The optical density of TβRII was compared to that of GAPDH using a densitometer.

[4] = system: TβRII; test: TβRII protein in human hair germinal matrix cells deficient in endogenous HA (4-MU); format: cell-based; conditions: 4-MU-treated cells; HAPLN1 25 ng/mL; TGF-β2 2 ng/mL
Protocol: 4-MU (4-methylumbelliferone) is an inhibitor of HA-producing hyaluronan synthase 2 (HAS2), which produces HA. In order to confirm the effect of HA produced in cells, HA production in cells was inhibited using 4-MU.
(§1) The human hair germinal matrix cells, in which the endogenous HA was inhibited by treating 4-MU, were dispensed into a poly-D-lysine 6-well plate at a concentration of 5.0×10^4 per well and cultured for 24 hours. After 24 hours, the medium was removed and replaced with a new serum-free medium. HAPLN1 was treated with 25 ng/mL, and after 1 hour, TGF-β2 (2 ng/mL) was treated. After 23 hours, cells were collected, a lysis buffer (25 mM Tris-HCl, 1 mM EDTA, 0.1% Triton-X100, phosphatase inhibitor, and protease inhibitor) was added, and all the cells were broken through sonication. HAS2 and TβRII in the sample were measured using Western blotting. The optical density of each of HAS2 and TβRII was compared to that of GAPDH using a densitometer.

[5] = system: p-c-Raf; test: p-c-Raf in human hair germinal matrix cells stimulated with TGF-β2 (Western blotting); format: cell-based; conditions: HAPLN1 25 ng/mL and/or HA 25 μg/mL; TGF-β2 2 ng/mL, 1 hour
Protocol: Human hair germinal matrix cells were dispensed into a poly-D-lysine 6-well plate at a concentration of 5.0×10^4 per well and cultured for 24 hours. After 24 hours, the medium was removed and replaced with a new serum-free medium. HAPLN1 was treated with 25 ng/mL and HA with 25 μg/mL, incubated for 23 hours, and then stimulated with TGF-β2 (2 ng/mL) for 1 hour. After collecting cells, a lysis buffer (25 mM Tris-HCl, 1 mM EDTA, 0.1% Triton-X100, phosphatase inhibitor, and protease inhibitor) was added, and all the cells were broken through sonication. p-ERK1/2, p-Smad2, p-MEK1/2, and p-c-Raf in the sample were measured using Western blotting. Optical densities of p-ERK1/2, p-Smad2, p-MEK1/2, and p-c-Raf were compared to those of ERK1/2, Smad2/3, MEK1, and c-Raf using a densitometer. Here, ERK1/2, Smad2/3, MEK1, and c-Raf were used as loading controls.

[6] = system: TβRI; test: TβRI protein in human hair germinal matrix cells treated with HAPLN1 and/or HA, then TGF-β2 (Western blotting); format: cell-based; conditions: HAPLN1 25 ng/mL; TGF-β2 2 ng/mL
Protocol: as §1, with “Human” for “The human”, “cells” for “cells, in which the endogenous HA was inhibited by treating 4-MU,”, “ng/mL, HA was treated with 25 μg/mL,” for “ng/mL,”, “TβRI” for “HAS2”, “of” for “of each of HAS2 and”

B1: hyaluronan and proteoglycan link protein 1 (protein, UniProt P10915 16-354, looked up)
Hyaluronan and proteoglycan …: DHLSDNYTLDHDRAIHIQAENGPHLLVEAEQAKVFSHRGGNVTLPCKFYRDPTAFGSGIHKIRIKWTKLTSDYLKEVDVFVSMGYHKKTYGGYQGRVFLKGGSDSDASLVITDLTLEDYGRYKCEVIEGLEDDTVVVALDLQGVVFPYFPRLGRYNLNFHEAQQACLDQDAVIASFDQLYDAWRGGLDWCNAGWLSDGSVQYPITKPREPCGGQNTVPGVRNYGFWDKDKSRYDVFCFTSNFNGRFYYLIHPTKLTYDEAVQACLNDGAQIAKVGQIFAAWKILGYDRCDAGWLADGSVRYPISRPRRRCSPTEAAVRFVGFPDKKHKLYGVYCFRAYN
notes: extracellular matrix protein found in cartilage; stabilizes aggregates of hyaluronic acid and proteoglycans
With B1 the “TβRII protein (optical density compared to GAPDH)” value [1] was “increased”, the “entry into the anagen phase” value [2] was “entered the anagen phase in a short period of time” and the “cell membrane TβRII protein concentration” value [3] was “increased”. For the same molecule, the TβRII level [4] was “recovered”, the “c-Raf activity (p-c-Raf compared to c-Raf)” value [5] was “increased activities” and the “concentration of TβRI” value [6] was “no change”.
